Results taken from patent US20240034816A1.

Legend:
[1] = molecular target: human CD16a (human FcγRIIIA), V isoform (human) (UniProt P08637); assay: SPR (Biacore T200), His-tagged huCD16a captured by anti-His antibody on CM5 chip, antibody injected at 5.8-3000 nmol/L, steady state fit
[2] = molecular target: human neonatal Fc receptor (FcRn) (human) (UniProt P55899); assay: SPR, binding to huFcRn at pH 6.0

Chain of human CD16a (human FcγRIIIA), V isoform (human) (P08637 17-208 F176V limits assumed): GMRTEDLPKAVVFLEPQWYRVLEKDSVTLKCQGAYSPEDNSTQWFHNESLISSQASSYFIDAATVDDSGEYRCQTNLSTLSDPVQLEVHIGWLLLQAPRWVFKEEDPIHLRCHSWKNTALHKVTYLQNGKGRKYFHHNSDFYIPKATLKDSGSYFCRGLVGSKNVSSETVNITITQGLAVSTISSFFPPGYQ

- Kd [1]: 467 nM
- Kd [2]: 154 nM
Substance: Adalimumab huIgG1 ctrl (antibody)
